The values below are quoted from earlier work in article PMC8416071.

The term Kd denotes the concentration at which binding is half-saturated.

The target of this data set is Spike protein (SARS-CoV) (UniProt P59594). Description: ITC. A general note: In ITC the heat of successive injections is recorded.

On to Griffithsin (from UniProt P84801), for which the Kd was 0.0249 µM.
